From IntAct's records for PubMed 12351681

B1: Protein Tube (Drosophila melanogaster (Fruit fly)), P22812 (parent)
chain: MAYGWNGCGMGVQVNGSNGAIGLSSKYSRNTELRRVEDNDIYRLAKILDENSCWRKLMSIIPKGMDVQACSGAGCLNFPAEIKKGFKYTAQDVFQIDEAANRLPPDQSKSQMMIDEWKTSGKLNERPTVGVLLQLLVQAELFSAADFVALDFLNESTPARPVDGPGALISLELLEEEMEVDNEGLSLKYQSSTATLGADAQGSVGLNLDNFEKDIVRRDKSVPQPSGNTPPIAPPRRQQRSTTNSNFATLTGTGTTSTTIPNVPNLTILNPSEQIQEPVLQPRPMNIPDLSILISNSGDLRATVSDNPSNRTSSTDPPNIPRITLLIDNSGDVNSRPNHAPAKASTATTSTASSNNLPMISALNISKGSRETLRPESRSSSSSLSKDDDDDNDGEEDGEEEYPDAFLPNLSNSEQQSSNNDSSLTTVTGTSGDNSFELTNDSSSTSNDDYACNIPDLSELQQ
partner: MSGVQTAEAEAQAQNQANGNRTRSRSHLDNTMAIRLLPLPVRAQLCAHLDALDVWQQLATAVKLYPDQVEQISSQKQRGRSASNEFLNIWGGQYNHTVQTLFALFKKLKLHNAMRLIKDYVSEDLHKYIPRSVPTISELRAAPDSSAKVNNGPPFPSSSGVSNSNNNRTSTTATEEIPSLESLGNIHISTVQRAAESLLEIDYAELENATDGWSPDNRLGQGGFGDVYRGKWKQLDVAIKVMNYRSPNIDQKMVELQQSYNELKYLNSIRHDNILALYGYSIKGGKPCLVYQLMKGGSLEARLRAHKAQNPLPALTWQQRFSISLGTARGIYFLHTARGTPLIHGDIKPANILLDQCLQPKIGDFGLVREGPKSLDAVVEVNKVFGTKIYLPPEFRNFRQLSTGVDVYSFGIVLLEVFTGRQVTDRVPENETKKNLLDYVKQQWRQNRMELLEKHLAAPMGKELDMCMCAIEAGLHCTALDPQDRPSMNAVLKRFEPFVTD

Variants of: B1
Settings: with kpel_drome pll

Row | effect of a mutation on the interaction | Variant
1 | decreasing interaction | E50K
